Measurements published in article PMC12070071, “The Drosophila pseudokinase Tribbles translocates to the fat body membrane in response to fasting to modulate insulin sensitivity” (Development (Cambridge, England), 2025).

T1: Drosophila Tribbles activation loop mutant Trbl^SLE/G, yeast two-hybrid bait (Drosophila, UniProt Q9V3Z1 1-484, SLE/G (replacement of E286 with glycine))
T1 construct: also called pDEST32-Trbl^SLE/G; source: yeast two-hybrid fusion (MaV203 yeast)
T1 sequence (looked up): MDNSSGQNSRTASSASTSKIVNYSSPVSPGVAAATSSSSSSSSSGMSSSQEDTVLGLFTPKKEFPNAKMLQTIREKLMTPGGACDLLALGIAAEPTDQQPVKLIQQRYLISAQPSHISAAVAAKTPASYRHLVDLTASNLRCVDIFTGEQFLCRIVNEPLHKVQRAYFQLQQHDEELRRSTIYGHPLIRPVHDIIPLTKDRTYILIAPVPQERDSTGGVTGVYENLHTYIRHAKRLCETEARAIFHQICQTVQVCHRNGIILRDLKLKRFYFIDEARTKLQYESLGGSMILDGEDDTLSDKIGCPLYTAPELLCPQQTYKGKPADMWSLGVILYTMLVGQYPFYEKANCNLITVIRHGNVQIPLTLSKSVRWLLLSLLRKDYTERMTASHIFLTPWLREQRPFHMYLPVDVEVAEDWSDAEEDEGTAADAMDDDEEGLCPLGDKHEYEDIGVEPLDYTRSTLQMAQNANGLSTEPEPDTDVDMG

B1: Drosophila Tribbles (Trbl), wild type, yeast two-hybrid fusion (natural protein, UniProt Q9V3Z1 1-484, looked up)
chain: MDNSSGQNSRTASSASTSKIVNYSSPVSPGVAAATSSSSSSSSSGMSSSQEDTVLGLFTPKKEFPNAKMLQTIREKLMTPGGACDLLALGIAAEPTDQQPVKLIQQRYLISAQPSHISAAVAAKTPASYRHLVDLTASNLRCVDIFTGEQFLCRIVNEPLHKVQRAYFQLQQHDEELRRSTIYGHPLIRPVHDIIPLTKDRTYILIAPVPQERDSTGGVTGVYENLHTYIRHAKRLCETEARAIFHQICQTVQVCHRNGIILRDLKLKRFYFIDEARTKLQYESLEGSMILDGEDDTLSDKIGCPLYTAPELLCPQQTYKGKPADMWSLGVILYTMLVGQYPFYEKANCNLITVIRHGNVQIPLTLSKSVRWLLLSLLRKDYTERMTASHIFLTPWLREQRPFHMYLPVDVEVAEDWSDAEEDEGTAADAMDDDEEGLCPLGDKHEYEDIGVEPLDYTRSTLQMAQNANGLSTEPEPDTDVDMG
notes: Tribbles (Trbl), Drosophila pseudokinase; WT Trbl ORF; One molecule for both two-hybrid copies: each copy carries only one of the two tags; also called WT Trbl; pDEST32-Trbl; source: yeast two-hybrid fusion (MaV203 yeast)

Experiments:
[1] = molecular target: T1, Drosophila Tribbles activation loop …; experiment: two-hybrid; MaV203 yeast; bait in pDEST32, prey in pDEST22; colony growth of co-transformants on media with increasing concentrations of 3-AT (His3 reporter); settings: partners not purified
[2] = molecular target: B1; experiment: as above; settings: partners not purified

Binder	highest 3AT concentration with growth [1]	highest 3AT concentration with growth [2]
Drosophila Akt, yeast two-hybrid prey (pDEST22-dAkt) (natural protein, UniProt Q8INB9 1-611, looked up, Akt kinase, Drosophila (dAkt); Akt open reading frame amplified from an Akt cDNA (Origene); source: yeast two-hybrid fusion (MaV203 yeast)) MNYLPFVLQRRSTVVASAPAPGSASRIPESPTTTGSNIINIIYSQSTHPNSSPTSGSAEKFSWQQSWPSRTSAAPTHDSGTMSINTTFDLSSPSVTSGHALTEQTQVVKEGWLMKRGEHIKNWRQRYFVLHSDGRLMGYRSKPADSASTPSDFLLNNFTVRGCQIMTVDRPKPFTFIIRGLQWTTVIERTFAVESELERQQWTEAIRNVSSRLIDVGEVAMTPSEQTDMTDVDMATIAEDELSEQFSVQGTTCNSSGVKKVTLENFEFLKVLGKGTFGKVILCREKATAKLYAIKILKKEVIIQKDEVAHTLTESRVLKSTNHPFLISLKYSFQTNDRLCFVMQYVNGGELFWHLSHERIFTEDRTRFYGAEIISALGYLHSQGIIYRDLKLENLLLDKDGHIKVADFGLCKEDITYGRTTKTFCGTPEYLAPEVLDDNDYGQAVDWWGTGVVMYEMICGRLPFYNRDHDVLFTLILVEEVKFPRNITDEAKNLLAGLLAKDPKKRLGGGKDDVKEIQAHPFFASINWTDLVLKKIPPPFKPQVTSDTDTRYFDKEFTGESVELTPPDPTGPLGSIAEEPLFPQFSYQGDMASTLGTSSHISTSTSLASMQ	100 mM 3AT	50 mM 3AT
B1	100 mM 3AT	
